The test deals with T1, PHF2(1–70), PHD domain of human PHF2 (residues 1–70) (human, UniProt O75151 1-70).
T1 sequence: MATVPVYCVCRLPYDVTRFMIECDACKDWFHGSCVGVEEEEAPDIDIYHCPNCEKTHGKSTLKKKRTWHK
Put plainly: ITC. In general terms: Isothermal titration calorimetry measures the heat released or taken up as one component is titrated into another.

No end group written: not given here.

Molecule ARTK(me3)QTARKSTG [H3(1-12)K4me3 peptide (12-mer of the N-terminal tail of histone H3, trimethylated at lysine 4)] displayed a Kd of 640 nM.

As usually defined, the Kd is a measure of binding affinity in units of concentration.

These data come from article PMC9898751 (The Journal of Biological Chemistry, 2022).
